Source: article PMC10907721

Biological target: T1, Hop1 CBR WT (Saccharomyces cerevisiae) (UniProt P20050)
T1 sequence: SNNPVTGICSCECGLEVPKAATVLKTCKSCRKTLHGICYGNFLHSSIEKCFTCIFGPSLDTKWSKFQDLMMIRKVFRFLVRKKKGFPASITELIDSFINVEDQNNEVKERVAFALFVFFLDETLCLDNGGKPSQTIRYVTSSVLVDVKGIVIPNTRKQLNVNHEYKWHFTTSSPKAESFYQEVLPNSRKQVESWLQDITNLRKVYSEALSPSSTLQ
Assay: EMSA
Settings: EMSA: 20 mM Tris-HCl pH 7.5, 25 mM NaCl, 2 mM beta-mercaptoethanol, 10% glycerol; 50 nM nucleosome or DNA; 15 min room temperature; 6% TBE-acrylamide gel, 0.2X …

## TGGAGAATCCCGGTGCCGAGGCCGCTCAATTGGTCGTAGACAGCTCTAGCACCGCTTAAACGCACGTACGCGCTGTCCCCCGCGTTTTAACCGCCAAGGGGATTACTCCCTAGTCTCCAGGCACGTGTCAGATATATACATCCTGT (double strand) [Widom 601 mononucleosome (human histones)]
  Kd: 470 nM
